According to publication PMC7596997, “The selectivity filter of the mitochondrial protein import machinery” (BMC Biology, 2020):
No end group written: not given here.

Target: T1, cytosolic domain of yeast Tom70 (His-Tom70_(38–617)) (yeast (Saccharomyces cerevisiae), UniProt P07213 38-617)
T1 construct: Tom70, yeast, cytosolic domain, residues 38-617 of the protein of 617 amino acids; plasmid pET10N-Tom70(38–617); also called Tom70cd; isolated Tom70; source: E. coli BL21(DE3), purified (HisTrap, size exclusion; or Ni-NTA beads, batch method); not shown: His tag, N-terminal, kept
T1 sequence (looked up): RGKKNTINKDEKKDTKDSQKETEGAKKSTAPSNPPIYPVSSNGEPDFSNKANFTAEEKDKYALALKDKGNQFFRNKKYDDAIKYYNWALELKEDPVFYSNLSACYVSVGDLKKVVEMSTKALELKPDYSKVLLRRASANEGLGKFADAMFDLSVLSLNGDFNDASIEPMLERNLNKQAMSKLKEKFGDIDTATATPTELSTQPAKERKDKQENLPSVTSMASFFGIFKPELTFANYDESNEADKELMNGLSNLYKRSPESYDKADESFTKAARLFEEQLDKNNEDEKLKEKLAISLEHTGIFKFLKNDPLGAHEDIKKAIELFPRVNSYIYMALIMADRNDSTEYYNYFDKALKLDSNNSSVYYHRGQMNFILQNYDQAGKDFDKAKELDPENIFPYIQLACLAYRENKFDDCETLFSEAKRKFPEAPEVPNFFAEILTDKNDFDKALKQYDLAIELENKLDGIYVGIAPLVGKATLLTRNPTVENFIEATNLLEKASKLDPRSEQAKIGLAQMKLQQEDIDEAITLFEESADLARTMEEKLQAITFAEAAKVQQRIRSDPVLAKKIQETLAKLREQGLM
Experiment: pull-down; purified His-Tom70cd (50 pmol per 100 μl) pre-bound to Ni-NTA beads, incubated 40 min at 30 °C with typically 7% (v/v) reticulocyte lysate containing the [35S]-labelled protein; 10 mM MOPS/KOH, 20 mM imidazole, 150 mM KCl, 1% BSA, pH 7.2; eluted with 1 M imidazole, SDS-PAGE, phosphorimager; in some samples the bead-bound Tom70cd was pretreated with NEM and washed before the lysate was added
Conditions: one partner purified

B1: ML3-DHFR (matrix loop of AAC module III, residues 238–277, fused to DHFR) (domain or fragment, Neurospora crassa, UniProt P02723 238-277, looked up)
chain: PLDTIRRRMMMTSGEAVKYKSSFDAASQIVAKEGVKSLFK
modifications: also: fused to DHFR, [35S]-methionine label
notes: ADP/ATP carrier (AAC), Neurospora crassa, residues 238-277; plasmid pYES2-AAC(238–277)-DHFR; also called the construct containing only the matrix loop; AAC(238–277)-DHFR; source: in vitro translated (TNT coupled reticulocyte lysate, with [35S]-methionine), in lysate
  percent of the total radiolabelled protein bound: < 1%
